In the RNAGym collection of RNA variant scans (doi:10.7554/elife.80360):

B1: HDV Ribozyme (parent)
chain: GGCCGGCAUGGUCCCAGCCUCCUCGCUGGCGCCGGCUGGGCAACAUUCCGAGGGGACCGUCCCCUCGGUAAUGGCGAAUGGGACCCA

Variants of: B1
Test: self-cleavage, relative activity (ratio to wild type); higher = more cleavage; co-transcriptional

Point of comparison: GGCCGGCAUGGUCCCAGCCUCCUCGCUGGCGCCGGCUGGGCAACAUUACGAGGGGACCGUCCCCUCGGUAAUGGCGAAUGGGCCCCA [C48A A83C], self-cleavage 0.317. Against it:
- GGCCGGCAUGGUCCCAGCCUCCUCGCUGGCGCCGGCUGGGUAACAUUCCGAGGGGACCGUCCCCACGGUAAUGGCGAAUGGGACCCA [C41U U65A] — higher, 0.92
- GGCCGGCAUGGUACCAGCCUCCUCGCUGGCGCCGGCUGGGCAACAUUCCGAGGGGACCGUCCCCUCGGUAAUGUCGAAUGGGACCCA [C13A G74U] — lower, 0.0443
- GGCCGGCAUGGUCCCAGCCUCCUCCCUGGCGCCGGCUGGGCAACAUUCCGAGGGGACCGUCCCCUCGGUAAUGGCGAAUGGGACGCA [G25C C85G] — lower, 0.125
- GGCCGGAAUGGUCCCAGCCUCCUCGCUGGCGCCGGCUGGGCAACAUCCCGAGGGGACCGUCCCCUCGGUAAUGGCGAAUGGGACCCA [C7A U47C] — lower, 0.277
- UGCCGGCAUGGUCCCAGCCUCCUCGCUGGCGCCGGCUGGGCAACAUUCCGAGGGGACCGUCUCCUCGGUAAUGGCGAAUGGGACCCA [G1U C62U] — higher, 0.443
- GGCCGUCAUGGUCCCAGCCUCCUCGCUGGCGCCGGCUGGGCACCAUUCCGAGGGGACCGUCCCCUCGGUAAUGGCGAAUGGGACCCA [G6U A43C] — lower, 0.0489
- GGCCGGCAUGAUCCCAGCCUCCUCGCUGGCGCCGGCUGGGCAAGAUUCCGAGGGGACCGUCCCCUCGGUAAUGGCGAAUGGGACCCA [G11A C44G] — lower, 0
- GGCCGGCAUGGUCCCAGCCUCCUCGCUGGCGCCGGCUGGGCAACAUUCCGCGGGGACCGUACCCUCGGUAAUGGCGAAUGGGACCCA [A51C C61A] — higher, 1.05
- GGCCGGCAUGGUCCCAGCCUCCUCGCUGGCGCCGGCUGGGCAACAUUCCGAGGGGACCGUCCCCUCGGAAAUGGCGACUGGGACCCA [U69A A78C] — lower, 0.208
- GGCCGGCAGGGUCCAAGCCUCCUCGCUGGCGCCGGCUGGGCAACAUUCCGAGGGGACCGUCCCCUCGGUAAUGGCGAAUGGGACCCA [U9G C15A] — higher, 1.21
- GGCCGGCAUGGUCCCAGCCUCCUCGCUGGCCCCGGCUGGGCAACAUUCCGAGGGGACCGUCCCCUCGGUAAUGGCGAAUGGGUCCCA [G31C A83U] — lower, 0.173
- GGCCGGCAUGGUCCCAGCCUCCUCGCUGGCGGCGGCUGGGCAACAUUCCGAGGGGACCGUCCCCUCGGUUAUGGCGAAUGGGACCCA [C32G A70U] — lower, 0.032
- GGCCGGCAUGGUCCCAGCCUCCUCGCUGGCGCCGGCUGGGCAACAUUCCGAGGGGACAGUCCCCUCGGUAAUGGCGUAUGGGACCCA [C58A A77U] — higher, 0.78
- GGCCGGCAUGGUCCCAGACUCCUCGCUGGCGCCGGCUGGGCAACAUUCCGAGGGGACGGUCCCCUCGGUAAUGGCGAAUGGGACCCA [C18A C58G] — lower, 0
- GGCCGGCGUGGUCCCAGCCUCCUCGCUGGCGCCGGCUGGGCAACAUUCCGAGGGGACCGUCCCCUCGGUUAUGGCGAAUGGGACCCA [A8G A70U] — higher, 0.831
- GGCCGGCAUGGUCCCAGCCUCCUCGCUUGCGCCGGCUGGGCAACAUUCCGAGGGGACGGUCCCCUCGGUAAUGGCGAAUGGGACCCA [G28U C58G] — lower, 0.0852
- GGCCGGCAUGGUCCCAGCCUCCUCGCUGGCGCCGGCUCGGCAACAUUCCGAGGGGACCGUCCCCUCGGUACUGGCGAAUGGGACCCA [G38C A71C] — lower, 0.231
- GGCGGGCAUGGUCUCAGCCUCCUCGCUGGCGCCGGCUGGGCAACAUUCCGAGGGGACCGUCCCCUCGGUAAUGGCGAAUGGGACCCA [C4G C14U] — higher, 0.462
- GGCCGGCAUGGUCCCAGCCUCCUCGCUGGCGCCUGCUGGGCAACAUUCCCAGGGGACCGUCCCCUCGGUAAUGGCGAAUGGGACCCA [G34U G50C] — lower, 0.0906
- GGCAGCCAUGGUCCCAGCCUCCUCGCUGGCGCCGGCUGGGCAACAUUCCGAGGGGACCGUCCCCUCGGUAAUGGCGAAUGGGACCCA [C4A G6C] — lower, 0.0594
- GGCCGGCAUGGUCCCAGCCUCCUCGCUGGCGCCGGCUGGGCAACAUUCCCAGGGGACCGUCCUCUCGGUAAUGGCGAAUGGGACCCA [G50C C63U] — higher, 0.997
- GGCCGGCAUGGUCCCAGCCUCCUCGCUGGCGCCGGCUGGGUAACAUUCCGAGGGGACCGUCCCCUCGGAAAUGGCGAAUGGGACCCA [C41U U69A] — higher, 1.08
- GGCCGGCAUGGUCCCAGCCUCCUCGCUGGCGCCGGCUGGGCAACAUUCCGAGGGGACCGUCCCCUCGGUAAGGGCGAUUGGGACCCA [U72G A78U] — higher, 0.356
- GGCCGGGAUGGUCCCAGCCUCCUGGCUGGCGCCGGCUGGGCAACAUUCCGAGGGGACCGUCCCCUCGGUAAUGGCGAAUGGGACCCA [C7G C24G] — lower, 0.123
- GGCCGGCAAGGUCCCAGCCUCCUCGCUGGCGCCGGCUGGGCAACAUUCCGAGGGGACCGUCCCCUCGGUAGUGGCGAAUGGGACCCA [U9A A71G] — higher, 0.506
- GGCCGGCAUGGUCCCAGCCUCCUCGCUGGCGCCGUCUGGGCAACAUUCCGAGGGGACCGUCCCCUCGGCAAUGGCGAAUGGGACCCA [G35U U69C] — lower, 0.253
- GGCCGGCAUCGUCCCAGCCUCCUCGCUGGCGCCGGCUGGGCAACAUUCCGAGGGGACCGUCCCCUCGGCAAUGGCGAAUGGGACCCA [G10C U69C] — higher, 1.21
- GUCCGGCAUGGUCCCAGCCUCCUCGCUGGCGCCGGCUGGGCAACAUUCCGAGGGGACCGUCCCCUCGGUAAUCGCGAAUGGGACCCA [G2U G73C] — lower, 0
- GGCCGGCAUGGUCCCAGCCUCCUCGCUGGCGCCGGCUGGGCAACAUUCCGAGGGAACCGUCCCCUCGGUAAUGGCGACUGGGACCCA [G55A A78C] — lower, 0.0639
- GGCCGGCAUGGUCCCAGCCUCCUCGCUGGCGCCGGCUGGGCAACAUUCCGACCGGACCGUCCCCUCGGUAAUGGCGAAUGGGACCCA [G52C G53C] — higher, 0.582
- GGCCGGCAUGGUCCCAGCCUCCUCGCUGGCGCCGGCAGGGCAACAGUCCGAGGGGACCGUCCCCUCGGUAAUGGCGAAUGGGACCCA [U37A U46G] — lower, 0.128
